Test results taken from publication PMC3689539 (Structure (London, England : 1993), 2009).

Target: the molecule itself
Assay: SEC

B1: full length unphosphorylated wild-type MEK6 (natural protein, human, UniProt P52564 1-334, looked up)
chain: MSQSKGKKRNPGLKIPKEAFEQPQTSSTPPRDLDSKACISIGNQNFEVKADDLEPIMELGRGAYGVVEKMRHVPSGQIMAVKRIRATVNSQEQKRLLMDLDISMRTVDCPFTVTFYGALFREGDVWICMELMDTSLDKFYKQVIDKGQTIPEDILGKIAVSIVKALEHLHSKLSVIHRDVKPSNVLINALGQVKMCDFGISGYLVDSVAKTIDAGCKPYMAPERINPELNQKGYSVKSDIWSLGITMIELAILRFPYDSWGTPFQQLKQVVEEPSPQLPADKFSAEFVDFTSQCLKKNSKERPTYPELMQHPFFTLHESKGTDVASFVKLILGD
  stoichiometry N: 2
